The values that follow come from patent publication US20080201790A1, “Method and product for regulating cell responsiveness to external signals” (priority 1993, published 2008).

One test deals with Swiss 3T3 cells. The test can be described thus: MEKKCOOH-induced cell death after nuclear microinjection of expression plasmids. The format is cell-based. The protocol: Swiss 3T3 and REF52 cells were plated on acid-washed glass cover slips in Dulbecco's Modified Eagle's Medium (DMEM) and 10% bovine calf serum (BCS) or newborn calf serum (NCS). Cells were placed in DMEM/0.1% calf serum for overnight incubation prior to microinjection and used for injection at 50-70% confluence. Injections were performed with an Eppendorf automated microinjection system with needles pulled from glass capillaries on a vertical pipette puller (Kopf, Tujunga, Calif.). Cells were injected with pCMVβ-gal in the presence or absence of pCMV5MEKKCOOH or pCMV5BxBRaf at 20-100 ng/μl for each expression plasmid in 100 mM KC1, 5 mM NaPO4, pH 7.3. Following injection cells were placed in 1% NCS for 12-18 hr (Swiss 3T3) or 42 hr (REF52) prior to fixation with paraformaldehyde and staining. Similar results were obtained when cells were placed in 10% NCS after microinjection. Propidium iodide ([…]) was used to stain DNA. X-Gal reactions were performed for six hr.
Swiss 3T3 cells were microinjected with 100 ng/μl pCMVβ-gal and 20 ng/μl pCMV5MEKKCOOH. To label free DNA ends fixed and rehydrated cells were incubated with terminal deoxytransferase (TDT) and 10 nM biotin-dUTP following the manufacturer's instructions (Boehringer-Mannheim). Cells were stained with FITC-streptavidin to label DNA fragments. β-gal was detected using rabbit anti-p-gal antibody (Cappel Labs) and a rhodamine-labeled goat anti-rabbit antibody (Cappel Labs).
Seventeen hours after injection cells were fixed and stained for, β-galactosidase activity with X-Gal. Injected cells attached to the coverslip were scored as positive for cell death when they were highly condensed, small round cells.

A further test concerns GST-Ras^V12. The test can be described thus: Binding of COS cell-expressed MEKK1 proteins to GST-Ras^V12 agarose. The following applies: COS cell lysates, immunoblot. The source says: COS cells were transiently transfected by the DEAE-dextran protocol as generally described in Example 3. Cos cells were transfected with: (1) p-MEKK1 containing a nucleic acid molecule encoding MEKK1 as described in Lange-Carter et al. (Science 260:315-319, […]); (2) p-MEKKNH2 containing a nucleic acid molecule that encodes a 858 base pair Pvull(682)-Ncol(1541) restriction digest fragment of the amino terminus of MEKK1 ligated into pCMV5; (3) p-MEKKCOOH containing a nucleic acid molecule that encodes a 1435 base pair Ncol(1541)-Sspl(2976) restriction digest fragment that includes the entire kinase domain of MEKK1 ligated into pCMV5; (4) pCMV5 without insert; or (5) p-C4Raf containing a nucleic acid molecule that encodes the amino terminus of Raf-1 ligated into pCMV5. COS cells expressing the various MEKK1 proteins were […] COS cells expressing the various MEKK1 proteins were lysed in EB (1% Triton X-100, 10 mM Tris HCl [pH 7.4], 5 mM EDTA, 50 mM NaCl, 50 mM NaF, 0.1% bovine serum albumin, 0.2 U/ml aprotinin, 1 mM phenylmethylsulfonyl fluoride and 2 mM Na3 VO4). The lysates were separated into two equal parts for separate binding reactions. Half of the lysate was incubated with GST agarose (1.5 μg) while half of the lysate was incubated with GST-Ras^V12 agarose (1.5 μg) (purchased from UBI) for 1 hr at 4° C. The GST-Ras^V12 was preincubated at 30° C. for 30 min with 1 mM nucleotide (GDP or GTPγS). The nucleotide binding reaction was stopped by adding MgCl2 to a final concentration of 20 mM. After the 1 hr binding reaction the agarose beads were pelleted at 2000 rpm for 2 min and washed 3 times with PBS+1.0% Triton X-100. The washed agarose beads were boiled in Laemmli SDS sample buffer and the proteins resolved by SDS polyacrylamide gel electrophoresis. Proteins were transferred onto nitrocellulose for immunoblotting with antibodies specific for an NH2 terminal fusion protein (described in Example 1) or a COOH terminal peptide (described in Example 1).
For orientation: Immunoblotting shows a protein as a band on a membrane.

Another test deals with Gal4/Elk-1. As to the kind of experiment: Gal4-TK-luciferase transactivation analysis, Gal4/Elk-1. The class given is cell-based. The following applies: expression in Swiss 3T3 cells. The source says: Swiss 3T3 cells were transfected using calcium phosphate or lipofectamine with the reporter plasmid Gal4-TK-luciferase, which contains four Gal4 binding sites (Sadowski, I., et al. (1988). Nature 335, 563-564). adjacent to a minimal thymidine kinase (TK) promoter that controls expression of luciferase, in the presence or absence of activator plasmids encoding Gal4(1-147)/Myc(7-101) (Gupta et al. (1993) Proc. Natl. Acad. Sci. USA 90:3216-3220), Gal4(1-47)/Elk-1(83-428) (Marais, et al. (1993) Cell 73:381-393) or Gal4(1-147)/c-Jun(1-233) Hibi et al. (1993) Genes & Development 7:2135-2148). Transfections included pCMV5 without a cDNA insert (basal control), pCMV5MEKKCOOH and in some experiments pCMV5BxBRaf. Cells were incubated for 24-48 hr after transfection, lysed and assayed for luciferase activity. Values were normalized to equivalent μg protein for all experiments.

B1: MEKKCOOH: a truncated activated form of MEKK1 including the entire kinase domain (protein)
chain: MAMSASQDALPIVPQLQVENGEDIIIIQQDTPETLPGHTKAKQPYREDAEWLKGQQIGLGAFSSCYQAQDVGTGTLMAVKQVTYVRNTSSEQEEVVEALREEIRMMGHLNHPNIIRMLGATCEKSNYNLFIEWMAGGSVAHLLSKYGAFKESVVINYTEQLLRGLSYLHENQIIHRDVKGANLLIDSTGQRLRIADFGAAARLASKGTGAGEFQGQLLGTIAFMAPEVLRGQQYGRSCDVWSVGCAIIEMACAKPPWNAEKHSNHLALIFKIASATTAPSIPSHLSPGLRDVAVRCLELQPQDRPPSRELLKHPVFRTTW
As for B1, the “Condensed Cells (percent of cells injected)” value with Swiss 3T3 cells (100 ng/μl plasmids, seventeen hours after injection, X-Gal) was “Approximately 84%”. Also, the “cells with cytoplasmic and nuclear morphology characteristic of apoptosis” value with Swiss 3T3 cells (18 hrs postinjection) is “Greater than 80%”. For the same molecule, in the test with Swiss 3T3 cells (microinjected Swiss 3T3 cells), the “DNA fragmentation (TDT, biotin-dUTP, streptavidin-FITC)” value is listed as “significant DNA fragmentation” and the “induction of cell death on expression (in words)” value was “resulted in significant cell death”. The “binding to GST-Ras^V12 (in words)” value with GST-Ras^V12 is recorded as “bound to GST-Ras^V12 in a GTP dependent manner”. Besides, in the test with Gal4/Elk-1, the “transactivation function of Elk-1” value was “markedly activated”.
